Measured values published in patent publication US20220372107A1.

What was measured:
TGFβ1 (human) = TGFβ1 (human) (UniProt P01137)
activin B = target: T1, activin B (UniProt P09529)
T1 sequence (looked up): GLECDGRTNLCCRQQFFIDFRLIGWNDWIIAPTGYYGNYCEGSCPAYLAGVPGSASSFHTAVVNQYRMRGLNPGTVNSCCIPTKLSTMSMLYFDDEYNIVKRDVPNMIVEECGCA

BMP10 = target: T2, BMP10 (UniProt O95393)
T2 sequence (looked up): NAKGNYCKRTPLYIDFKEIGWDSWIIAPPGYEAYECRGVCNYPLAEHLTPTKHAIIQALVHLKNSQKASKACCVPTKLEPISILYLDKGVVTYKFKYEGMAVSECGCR

TGFβ2 (human) = target: T3, TGFβ2 (human) (UniProt P61812)
T3 sequence (looked up): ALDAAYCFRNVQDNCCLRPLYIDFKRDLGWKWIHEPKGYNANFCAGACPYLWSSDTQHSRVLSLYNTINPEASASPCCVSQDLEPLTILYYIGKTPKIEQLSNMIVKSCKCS

activin A = target: T4, activin A (UniProt P08476)
T4 sequence (looked up): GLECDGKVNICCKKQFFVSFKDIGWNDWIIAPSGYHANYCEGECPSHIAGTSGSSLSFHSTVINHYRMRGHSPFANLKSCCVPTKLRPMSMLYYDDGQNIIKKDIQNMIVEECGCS

TGFβ3 (human) = target: T5, TGFβ3 (human) (UniProt P10600)
T5 sequence (looked up): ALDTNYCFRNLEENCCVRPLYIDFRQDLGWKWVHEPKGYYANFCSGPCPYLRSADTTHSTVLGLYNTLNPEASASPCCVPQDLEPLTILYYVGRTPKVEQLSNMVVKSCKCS

GDF11 = target: T6, GDF11 (UniProt O95390)
T6 sequence (looked up): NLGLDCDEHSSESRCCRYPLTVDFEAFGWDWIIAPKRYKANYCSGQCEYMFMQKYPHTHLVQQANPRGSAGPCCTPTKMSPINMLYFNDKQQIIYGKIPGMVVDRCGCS

UniProt P01137, sequence (P01137 279-390 limits assumed): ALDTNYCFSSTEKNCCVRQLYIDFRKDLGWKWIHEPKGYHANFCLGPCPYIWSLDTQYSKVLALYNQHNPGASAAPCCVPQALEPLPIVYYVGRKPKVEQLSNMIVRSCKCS

IC50 (CAGA12 luciferase reporter gene assay) (TGFβ1 (human))	IC50 (CAGA12 luciferase reporter gene assay) (activin B)	IC50 (CAGA12 luciferase reporter gene assay) (BMP10)	IC50 (CAGA12 luciferase reporter gene assay) (TGFβ2 (human))	IC50 (CAGA12 luciferase reporter gene assay) (activin A)	IC50 (CAGA12 luciferase reporter gene assay) (TGFβ3 (human))	IC50 (CAGA12 luciferase reporter gene assay) (GDF11)	Substance
0.21 nM	1.16 nM	> 20 µg/mL	> 20 µg/mL	1.28 nM	0.39 nM	18.1 nM	ActRIIA-Fc:TβRII-Fc heterodimer (Fc fusion)
0.017 nM	> 20 µg/mL	> 20 µg/mL	> 20 µg/mL	> 20 µg/mL	–	> 20 µg/mL	TβRII-Fc homodimer (Fc fusion)
